IntAct's records for PubMed 26221972

B1: T-lymphocyte surface antigen Ly-9 (Homo sapiens), Q9HBG7 (parent)
chain: MVAPKSHTDDWAPGPFSSKPQRSQLQIFSSVLQTSLLFLLMGLRASGKDSAPTVVSGILGGSVTLPLNISVDTEIENVIWIGPKNALAFARPKENVTIMVKSYLGRLDITKWSYSLCISNLTLNDAGSYKAQINQRNFEVTTEEEFTLFVYEQLQEPQVTMKSVKVSENFSCNITLMCSVKGAEKSVLYSWTPREPHASESNGGSILTVSRTPCDPDLPYICTAQNPVSQRSSLPVHVGQFCTDPGASRGGTTGETVVGVLGEPVTLPLALPACRDTEKVVWLFNTSIISKEREEAATADPLIKSRDPYKNRVWVSSQDCSLKISQLKIEDAGPYHAYVCSEASSVTSMTHVTLLIYRRLRKPKITWSLRHSEDGICRISLTCSVEDGGNTVMYTWTPLQKEAVVSQGESHLNVSWRSSENHPNLTCTASNPVSRSSHQFLSENICSGPERNTKLWIGLFLMVCLLCVGIFSWCIWKRKGRCSVPAFCSSQAEAPADTPEPTAGHTLYSVLSQGYEKLDTPLRPARQQPTPTSDSSSDSNLTTEEDEDRPEVHKPISGRYEVFDQVTQEGAGHDPAPEGQADYDPVTPYVTEVESVVGENTMYAQVFNLQGKTPVSQKEESSATIYCSIRKPQVVPPPQQNDLEIPESPTYENFT
partner: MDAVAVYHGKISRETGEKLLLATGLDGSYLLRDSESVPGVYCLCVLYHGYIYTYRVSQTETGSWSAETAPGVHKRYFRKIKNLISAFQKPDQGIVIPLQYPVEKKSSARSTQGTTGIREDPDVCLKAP
B2: T-lymphocyte surface antigen Ly-9 (Homo sapiens), Q9HBG7 (parent)
chain: B1 chain
partner: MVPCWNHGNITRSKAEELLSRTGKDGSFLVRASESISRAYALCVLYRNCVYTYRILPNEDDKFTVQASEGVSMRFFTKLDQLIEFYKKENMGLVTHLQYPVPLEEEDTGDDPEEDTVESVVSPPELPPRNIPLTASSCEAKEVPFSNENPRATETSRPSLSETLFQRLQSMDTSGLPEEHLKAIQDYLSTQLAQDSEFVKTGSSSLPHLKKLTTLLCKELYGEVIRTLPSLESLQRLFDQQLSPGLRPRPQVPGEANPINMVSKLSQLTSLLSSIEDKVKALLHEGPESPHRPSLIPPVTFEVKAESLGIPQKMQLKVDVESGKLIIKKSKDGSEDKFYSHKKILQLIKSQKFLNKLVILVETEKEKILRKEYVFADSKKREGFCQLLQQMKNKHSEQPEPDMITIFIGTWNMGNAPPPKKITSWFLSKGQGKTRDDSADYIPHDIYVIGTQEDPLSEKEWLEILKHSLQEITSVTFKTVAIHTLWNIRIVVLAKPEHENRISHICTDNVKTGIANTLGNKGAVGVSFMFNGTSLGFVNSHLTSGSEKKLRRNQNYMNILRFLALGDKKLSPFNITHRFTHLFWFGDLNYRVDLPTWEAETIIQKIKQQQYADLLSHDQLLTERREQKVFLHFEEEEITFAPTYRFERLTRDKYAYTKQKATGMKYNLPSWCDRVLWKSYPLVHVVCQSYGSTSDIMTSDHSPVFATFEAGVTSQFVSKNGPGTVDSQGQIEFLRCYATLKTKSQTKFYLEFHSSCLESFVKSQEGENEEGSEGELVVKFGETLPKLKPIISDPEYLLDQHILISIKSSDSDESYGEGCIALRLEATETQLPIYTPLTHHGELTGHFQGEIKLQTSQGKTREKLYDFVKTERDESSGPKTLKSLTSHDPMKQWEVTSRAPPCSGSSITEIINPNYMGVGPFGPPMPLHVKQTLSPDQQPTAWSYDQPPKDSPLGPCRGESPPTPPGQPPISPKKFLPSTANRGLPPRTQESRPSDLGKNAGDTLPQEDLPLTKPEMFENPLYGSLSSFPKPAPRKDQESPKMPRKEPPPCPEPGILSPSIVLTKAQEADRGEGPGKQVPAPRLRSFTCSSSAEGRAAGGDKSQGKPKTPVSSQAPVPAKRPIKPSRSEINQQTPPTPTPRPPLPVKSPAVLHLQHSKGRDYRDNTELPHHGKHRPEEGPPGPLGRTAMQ

Variants of: B1
Settings: with sh21a_human SH2D1A

**Q.** M602V was tested. Which “effect of a mutation on the interaction” value did it give?
**A.** decreasing interaction

Variants of: B2
Settings: with ship1_human INPP5D

**Q.** Which “effect of a mutation on the interaction” value does the source give for M602V here?
**A.** decreasing interaction
